From patent US20210198647

What was measured:
[1] = tested on: NlnA#1, NSC 374121, L-histidyl-L-tyrosine
[2] = tested on: NlnA#2, NSC 523374, D,L-histidyl-D,L-histidine

Substance | Emax, QFS (25 µM) hydrolysis [1] | Emax, QFS (25 µM) hydrolysis [2]
recombinant human neurolysin (R & D systems, product number 3814-ZN) | 203.5% (95% confidence intervals 193.7 to 213.4%) | 214.3% (95% confidence intervals 205.7 to 222.9%)
mouse brain-purified neurolysin | 190% (95% confidence intervals 169.2 to 210.7%) | 258% (95% confidence intervals 232.7 to 283.8%)
